We go through four compounds from PMC3523363 (Journal of medicinal chemistry, 2012).

A short description of one data set: Spectroscopic studies. Type of data set: physicochemical. As to conditions: in DMF; for фF (fluorescence quantum yield): calculated using ZnPc (Фf = 0.17) as the standard; for Emission: excitation at 670 nm.
A further data set relates to HEp2 cells. The data set is described as follows: Phototoxicity, Cell Titer Blue assay. Type of data set: cell-based, human. As to conditions: 24 h.
In another data set the test system is HT-29 cells. The data set is described as follows: Phototoxicity, Cell Titer Blue assay. The format is cell-based, human. The conditions noted are these: 24 h.
The subject of the next data set is A431 cells. Nature of the data set: Phototoxicity, Cell Titer Blue assay. The format is cell-based, human. As to conditions: 24 h.
The subject of the next data set is Vero cells. The data set is described as follows: Phototoxicity, Cell Titer Blue assay. The format is cell-based, cercopithecus aethiops. The conditions noted are these: 24 h.
Another data set concerns HT-29 s.c. tumors. The data set is described as follows: In vivo near-IR fluorescence imaging of s.c. tumor xenografts. As to conditions: HT-29 s.c. tumor, 10 mg/kg iv, up to 96 h. Further details: species or system nude mice.
The subject of a further data set is A431 s.c. tumors. Described as above. More on the design: species or system nude mice. The conditions noted are these: 10 mg/kg iv, up to 96 h.
For data set [1] the following is noted: in DMF; cited from earlier work.
The next data set concerns the target EGFR (Homo sapiens, UniProt P00533). The data set is described as follows: Surface plasmon resonance. The format is binding. As to conditions: EGFR immobilized on CM5 chip, 25 °C.

As for `CC[C@H](C)[C@H](NC(=O)[C@@H](NC(=O)[C@H](CC(N)=O)NC(=O)[C@H](CCC(N)=O)NC(=O)[C@@H]1CCCN1C(=O)[C@@H](NC(=O)[C@H](Cc1ccc(O)cc1)NC(=O)CNC(=O)[C@H](Cc1ccc(O)cc1)NC(=O)[C@H](Cc1c[nH]c2ccccc12)NC(=O)[C@H](Cc1c[nH]cn1)NC(=O)[C@H](Cc1ccc(O)cc1)NC(=O)CNC(=O)COCC(=O)Nc1ccc(Oc2ccc3c4nc5nc(nc6[nH]c(nc7nc(nc([nH]4)c3c2)-c2cc(C(C)(C)C)ccc2-7)c2ccc(C(C)(C)C)cc62)-c2ccc(C(C)(C)C)cc2-5)cc1)[C@@H](C)O)C(C)C)C(N)=O` [Pc 4b], in “Spectroscopic studies”, the “Stokes' Shift” value is 4 nm, the ε is 4.85 M⁻¹ cm⁻¹, the “фF (fluorescence quantum yield)” value is on record as 0.10 and the Emission is given as 681 nm. The Absorption in the data set “Spectroscopic studies” (Q band) came to 677 nm.
`CC(C)C[C@H](NC(=O)CCOCCOCCOCCNC(=O)COCC(=O)Nc1ccc(Oc2ccc3c4nc5nc(nc6[nH]c(nc7nc(nc([nH]4)c3c2)-c2cc(C(C)(C)C)ccc2-7)c2ccc(C(C)(C)C)cc62)-c2ccc(C(C)(C)C)cc2-5)cc1)C(=O)N[C@@H](C)C(=O)N[C@@H](CCCNC(=N)N)C(=O)N[C@@H](CC(C)C)C(=O)N[C@@H](CC(C)C)C(=O)N[C@H](C(N)=O)[C@@H](C)O` [Pc 5b] returned a ε in the data set “Spectroscopic studies” of 5.27 M⁻¹ cm⁻¹. In addition, the “фF (fluorescence quantum yield)” value in the data set “Spectroscopic studies” is listed as 0.11. This compound gave an Emission in the data set “Spectroscopic studies” of 682 nm. In addition, the 50% inhibitory concentration (IC50) with HEp2 cells, in the data set on HT-29 cells, in the data set with A431 cells and in the data set on Vero cells was over 100 µM each time. For the same compound, the figures for the “course of tumor fluorescence signal” value with HT-29 s.c. tumors and with A431 s.c. tumors were “declined from 24 to 96 h” and “continued to increase to 96 h”, respectively.
With `[Zn+2].c1ccc2c(c1)-c1nc-2nc2[n-]c(nc3nc([n-]c4nc(n1)-c1ccccc1-4)-c1ccccc1-3)c1ccccc21` [ZnPc], the “Фf (fluorescence quantum yield) of the reference” value in data set [1] is given as 0.17.
GYHWYGYTPQNVI [EGFR-L2]: the “relative binding affinity to EGFR (SPR)” value with EGFR is “higher affinity for EGFR than EGFR-L1”.
